From patent US20030027314A1 (published 2003)

Assays:
CREB (unmodified) = target: T1, CREB (unmodified); assay: thermal melting curve, mixture (FIG. 3)
T1 construct: also called unmodified CREB
T1 sequence (chain, from a related filing, looked up): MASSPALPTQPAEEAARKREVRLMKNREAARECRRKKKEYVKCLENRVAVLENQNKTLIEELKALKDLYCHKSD

c-Jun (unmodified) [1] = assay: from thermal melts, Kd at 37 °C (FIG. 4)
c-Jun (unmodified) [2] = assay: thermal melting curve, mixture (FIG. 4)
[3] = target: the molecule itself; assay: CD thermal melt, homodimer, 150 mM KCl
[4] = target: the molecule itself; assay: homodimer, study of FIG. 9 (method not given)

Sequence of c-Jun (unmodified) (chain, from a related filing, as listed by the source): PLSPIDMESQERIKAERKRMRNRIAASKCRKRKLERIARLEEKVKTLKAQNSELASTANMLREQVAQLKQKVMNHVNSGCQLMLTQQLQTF

B1: 4heptadCREB (CREB with 4 heptad repeats appended at the amino terminus) (designed binder)
chain: ASMTGGQQMGRDPDLEQRAEELARENEELEKEAEELEQENAELENRVAVLENQNKTLIEELKALKDLYCHKSD
notes: also called 4hep-CREB
Tm (CREB (unmodified)): 53 °C

B2: 4heptad-Fos (c-Fos with the basic region replaced by four acidic heptad repeats) (designed binder)
chain: MASMTGGQQMGRDPDLEQRAEELARENEELEKEAEELEQENAELEAETDQLEDEKSALQTEIANLLKEKEKLEFILAAHRPACKIP
notes: How the two entries relate is not explained; also called aFos; aZIP 4heptadFos
Kd (c-Jun (unmodified) [1]): 6 nM | Tm (c-Jun (unmodified) [2]): 61 °C

B3: 0heptad-F (F zipper with the basic region deleted) (designed binder)
chain: ASMTGGQQMGRDPGGGTQQEVLELESRNDRLRKEVEQLERELDTLRGIFRQLPESSLVKAMGNCA
notes: expressed in E. coli; also called 0heptad-F (H); heterodimerizing zipper
delta G at 25 °C [3]: -8 kcal/mol

B4: 0heptadMax (dimerization domain of Max without an acidic extension) (other)
chain: ASMTGGQQMGRDPDLEELEDSFHSLRDSVPSLQGEKASRAQILDKATEYIQYMRRKNHTHQQDIDDLKRQNALLEQQVRALEKARSSAQLQT
Kd [4]: 100 nM
